In paper PMC8809517, “Cofactor-independent RNA editing by a synthetic S-type PPR protein” one finds Kd data, which are given here for four molecules.

Test in all cases: high-throughput RNA pulldown from lysate on Ni-NTA beads; HRP: 50 mM Tris pH 8, 150 mM NaCl, 1 mM beta-mercaptoethanol, 50 ug/ml BSA, 3 ug/ml yeast RNA, 0.5% heparin; ITC and FP: Tris pH 8, 200 mM KCl, 5% glycerol; MST: 50 mM Tris pH 8, 200 mM NaCl, 1 mM DTT, BSA, heparin, 0.05% Tween 20
What all share (conditions): tags: N-terminal His-eGFP

Data set [1] concerns the target T1, GFP-9S library array, motif 4 ND N98I (synthetic construct, N98I).
T1 chain: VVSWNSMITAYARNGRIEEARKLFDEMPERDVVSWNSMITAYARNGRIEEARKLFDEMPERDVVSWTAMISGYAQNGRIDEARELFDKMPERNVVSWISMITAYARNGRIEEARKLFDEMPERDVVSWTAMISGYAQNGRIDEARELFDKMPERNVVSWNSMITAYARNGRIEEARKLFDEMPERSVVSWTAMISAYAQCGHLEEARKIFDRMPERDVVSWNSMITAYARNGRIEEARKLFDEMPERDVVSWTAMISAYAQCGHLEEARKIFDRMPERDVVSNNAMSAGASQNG

For data set [2], the target named is T2, GFP-9S library array, motif 4 ND N98T;D124R (synthetic construct, N98T;D124R).
T2 chain: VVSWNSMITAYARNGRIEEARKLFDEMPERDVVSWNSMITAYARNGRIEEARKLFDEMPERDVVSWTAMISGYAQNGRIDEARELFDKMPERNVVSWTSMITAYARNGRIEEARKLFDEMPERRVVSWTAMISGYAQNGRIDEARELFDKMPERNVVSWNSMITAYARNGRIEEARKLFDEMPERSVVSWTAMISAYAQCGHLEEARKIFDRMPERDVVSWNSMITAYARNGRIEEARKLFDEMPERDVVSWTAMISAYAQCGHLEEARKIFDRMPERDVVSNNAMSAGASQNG

In data set [3] the target is T3, GFP-9S library array, motif 4 ND N98H;D124Q (synthetic construct, N98H;D124Q).
T3 chain: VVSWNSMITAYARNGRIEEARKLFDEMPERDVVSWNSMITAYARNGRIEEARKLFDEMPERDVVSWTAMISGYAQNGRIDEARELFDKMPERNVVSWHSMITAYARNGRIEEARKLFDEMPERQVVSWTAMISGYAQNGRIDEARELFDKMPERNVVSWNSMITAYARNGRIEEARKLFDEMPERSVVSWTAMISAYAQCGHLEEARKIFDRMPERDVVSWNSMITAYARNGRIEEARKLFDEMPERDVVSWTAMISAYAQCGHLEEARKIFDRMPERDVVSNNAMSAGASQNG

For data set [4], the target named is T4, GFP-9S library array, motif 4 ND (synthetic construct).
T4 chain: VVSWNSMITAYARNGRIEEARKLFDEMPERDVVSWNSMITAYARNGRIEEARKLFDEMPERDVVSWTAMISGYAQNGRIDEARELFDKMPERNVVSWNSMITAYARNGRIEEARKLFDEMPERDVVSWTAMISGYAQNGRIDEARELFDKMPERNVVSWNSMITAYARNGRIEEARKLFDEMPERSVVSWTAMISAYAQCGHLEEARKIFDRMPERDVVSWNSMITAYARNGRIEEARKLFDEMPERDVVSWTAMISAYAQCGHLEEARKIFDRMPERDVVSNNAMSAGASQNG

Data set [5] deals with T5, GFP-9S library array, motif 4 ND N98C;D124A (synthetic construct, N98C;D124A).
T5 chain: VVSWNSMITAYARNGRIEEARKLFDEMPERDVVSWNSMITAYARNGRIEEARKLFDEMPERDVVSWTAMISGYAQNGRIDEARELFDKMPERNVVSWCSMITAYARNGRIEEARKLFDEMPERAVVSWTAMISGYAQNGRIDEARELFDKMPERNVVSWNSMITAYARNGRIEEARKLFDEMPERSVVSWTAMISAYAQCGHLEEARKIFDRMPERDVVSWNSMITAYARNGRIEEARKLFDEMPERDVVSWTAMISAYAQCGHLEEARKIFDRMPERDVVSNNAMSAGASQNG

As for AUUACACGUGA (ssRNA) [Cy5-rpoA], the Kd in data set [1] (label: 5' Cy5) turned out to be 153 nM; in data set [2] (label: 5' Cy5), 132 nM; in data set [3] (label: 5' Cy5), 68.7 nM; in data set [4] (label: 5' Cy5) it was 19 nM; in data set [5] (label: 5' Cy5), 114 nM.
For AUUAGACGUGA (ssRNA) [Cy5-rpoA-G] the same measures were 127 nM, 120 nM, 60.8 nM, 276 nM and 92.3 nM.
For AUUAUACGUGA (ssRNA) [IR-rpoA-U], the Kd is 53.5 nM in data set [1] (label: 5' IRDye 800CW); 133 nM in data set [2] (label: 5' IRDye 800CW); 31.4 nM in data set [3] (label: 5' IRDye 800CW); 6.27 nM in data set [4] (label: 5' IRDye 800CW); 159 nM in data set [5] (label: 5' IRDye 800CW).
For AUUAAACGUGA (ssRNA) [IR-rpoA-A] the same measures were 175 nM, 80.8 nM, 82.6 nM, 86.8 nM and 98.2 nM.
